Assay results taken from FireProtDB (doi:10.1021/bi00197a024).
Values joined by “and” are separate entries in the source; they are usually repeats but may differ in a detail not shown here. Equal values may be shown once.

Conditions: Saccharomyces cerevisiae (strain ATCC 204508 / S288c), Thermal, DSC, reversible: yes, whole UniProt chain shown

B1: Cytochrome c mitochondrial import factor CYC2 wild type, P38909 (protein)
chain: MLWKNYVLSSSRITRRLHKSPRKSSFSKNFFITGCLLTVGAVSSYLTYRYTSERENKHELSPSYFVKYKISHKRDIDSSHFLLEVTPLFKQKVNIWSLMTAENLWSVEIKQPEVMVVRNYTPLPLKFNPASKEIEILKDGDNADGKLSFYIKKYENGEVARWLHHLPKGHIIEIRGPFIDYEFPHLPNELKRSRDCLYMDNRNERGNNVRENSQFIYQPYDIMMFTAGTGIVTALQLLLTESPFRGTIKLFHTDKNIKQLGPLYPILLRLQASNRVQLKIFETDRQTKQDVLKSIQKSITKPYPYKGLLPFSNVNNKNIMPVLALVCGPESYISSISGRKYDLNQGPVGGLLSKEGWNSDNVYKLS
**Q.** For B1, which Tm (pH 3.5, Sodium acetate 0.1 M) is on record?
**A.** The Tm was 39 °C.

**Q.** And the “unfolding enthalpy (calorimetric)” value (pH 3.5, Sodium acetate 0.1 M)?
**A.** Its value is 53.7 kcal/mol.

**Q.** What about the “unfolding enthalpy (van 't Hoff)” value (pH 3.5, Sodium acetate 0.1 M) of the same protein?
**A.** Its value is 67.7 kcal/mol.

**Q.** And the Tm (pH 4, Sodium acetate 0.1 M)?
**A.** Its Tm is 43.7 °C.

**Q.** And the “unfolding enthalpy (calorimetric)” value (pH 4, Sodium acetate 0.1 M)?
**A.** Its value is 62.7 kcal/mol.

**Q.** What about the “unfolding enthalpy (van 't Hoff)” value (pH 4, Sodium acetate 0.1 M) of the same protein?
**A.** The value was 75.9 kcal/mol.

**Q.** And the Tm (pH 5, Sodium phosphate 0.1 M)?
**A.** Its Tm is 54.9 °C and 53.1 °C.

**Q.** And the “unfolding enthalpy (calorimetric)” value (pH 5, Sodium phosphate 0.1 M)?
**A.** The value was 73.4 kcal/mol and 71.2 kcal/mol.

**Q.** What about the “unfolding enthalpy (van 't Hoff)” value (pH 5, Sodium phosphate 0.1 M) of the same protein?
**A.** The value was 93.2 kcal/mol and 92.9 kcal/mol.

**Q.** And the Tm (pH 6, Sodium phosphate 0.1 M)?
**A.** Its Tm is 54.5 °C.

**Q.** And the “unfolding enthalpy (calorimetric)” value (pH 6, Sodium phosphate 0.1 M)?
**A.** Its value is 67.4 kcal/mol.

**Q.** What about the “unfolding enthalpy (van 't Hoff)” value (pH 6, Sodium phosphate 0.1 M) of the same protein?
**A.** Its value is 91.7 kcal/mol.
